Experimental data: publication PMC9949255

What was measured:
[1] = molecular target: recombinant HIV-1 gp120 ZM109 (HIV-1 strain ZM109); assay: BLI; Octet Red96; anti-Env mAb 2219 (5 μg/mL) on AHC biosensors, then recombinant gp120 ZM109 (5 μg/mL), dipped into titrated FimH; PBS with 0.1% BSA and 0.02% Tween 20; 1:1 global fit
[2] = molecular target: recombinant HIV-1 gp120 ZM109 (HIV-1 strain ZM109); assay: BLI; Octet Red96; recombinant gp120 coupled to AR2G biosensors, dipped into titrated SLBR-N; PBS with 0.1% BSA and 0.02% Tween 20; 1:1 global fit

“recombinant FimH protein (lectin domain only) (from UniProt P08191 22-179) (domain or fragment)” gave a Kd [1] of 360 nM.
Work on “Streptococcal Siglec-like lectin SLBR-N, GST-tagged (domain or fragment)” yielded a Kd [2] of 40.3 nM.
